Tests used:
[1] = target: T1, human SIGLEC15 on CHO-S-hSIGLEC15 cells (human, UniProt Q6ZMC9 20-328); test: flow cytometry (MFI) on CHO-S-hSIGLEC15 cells; antibody sample: 40° C. 7 d
T1 sequence: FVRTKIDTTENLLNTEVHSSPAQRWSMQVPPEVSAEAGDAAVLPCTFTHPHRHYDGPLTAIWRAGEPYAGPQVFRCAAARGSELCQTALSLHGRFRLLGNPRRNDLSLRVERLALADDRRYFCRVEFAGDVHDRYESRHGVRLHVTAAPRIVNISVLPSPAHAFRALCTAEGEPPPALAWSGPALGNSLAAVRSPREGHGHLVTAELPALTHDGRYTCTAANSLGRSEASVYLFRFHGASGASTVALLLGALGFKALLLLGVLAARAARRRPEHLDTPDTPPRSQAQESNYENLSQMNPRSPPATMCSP
Method: (§1) In the activity detection experiment, 30 μL of CHO-S-hSIGLEC15 cells were added to the culture plate, and the antibody to be tested was added in a gradient dilution ([…]), and incubated at 4° C. for 30 min. The plate was washed with PBS, and diluted secondary antibody Anti-hIgG-Fc-Alex Flour 647 (RL1-H) (1:2000) was added, incubated at 4° C. for 30 min. The plate was washed once with PBS and the cells were resuspended for flow cytometry detection. MFI value was derived by FlowJo 7.6.1 analysis to calculate EC50.

[2] = target: T1, human SIGLEC15 on CHO-S-hSIGLEC15 cells; test: flow cytometry (MFI) on CHO-S-hSIGLEC15 cells; antibody sample: freeze 1
Method: as §1

[3] = target: T1, human SIGLEC15 on CHO-S-hSIGLEC15 cells; test: flow cytometry (MFI) on CHO-S-hSIGLEC15 cells; antibody sample: pH 3.5 0 h
Method: as §1

[4] = target: T1, human SIGLEC15 on CHO-S-hSIGLEC15 cells; test: flow cytometry (MFI) on CHO-S-hSIGLEC15 cells; antibody sample: 4° C. 7 d
Method: as §1

[5] = target: T1, human SIGLEC15 on CHO-S-hSIGLEC15 cells; test: flow cytometry (MFI) on CHO-S-hSIGLEC15 cells; antibody sample: pH 3.5 6 h
Method: as §1

[6] = target: T1, human SIGLEC15 on CHO-S-hSIGLEC15 cells; test: flow cytometry (MFI) on CHO-S-hSIGLEC15 cells; antibody sample: 25° C. 7 d
Method: as §1

[7] = target: T1, human SIGLEC15 on CHO-S-hSIGLEC15 cells; test: flow cytometry (MFI) on CHO-S-hSIGLEC15 cells; antibody sample: freeze 10
Method: as §1

[8] = target: T1, human SIGLEC15 on CHO-S-hSIGLEC15 cells; test: flow cytometry (MFI) on CHO-S-hSIGLEC15 cells; antibody sample: 0 d
Method: as §1

B1: one-armed anti-SIGLEC15 antibody 10C9-S, human IgG1-N297A (antibody)
heavy: not shown
chain: DKTHTCPPCPAPELLGGPSVFLFPPKPKDTLMISRTPEVTCVVVDVSHEDPEVKFNWYVDGVEVHNAKTKPREEQYASTYRVVSVLTVLHQDWLNGKEYKCKVSNKALPAPIEKTISKAKGQPREPQVCTLPPSREEMTKNQVSLSCAVKGFYPSDIAVEWESNGQPENNYKTTPPVLDSDGSFFLVSKLTVDKSRWQQGNVFSCSVMHEALHNHYTQKSLSLSPGK
light: DIQLTQSPLSSPVTLGQPASISCRSSQSLVNSDGETFLSWLQQRPGQPPRLLIYKISNRFSGVPDRFSGSGAGTDFTLKISRVEAEDVGVYYCMQATQFPHTFGQGTKLEIKRTVAAPSVFIFPPSDEQLKSGTASVVCLLNNFYPREAKVQWKVDNALQSGNSQESVTEQDSKDSTYSLSSTLTLSKADYEKHKVYACEVTHQGLSSPVTKSFNRGEC
notes: One-armed format; It has a full-length heavy chain with the knob (T366W), a single Fc fragment with the hole mutations (T366S, L368A, Y407V), and a full-length light chain
- EC50 [1]: 1.55 µg/mL
- EC50 [2]: 1.46 µg/mL
- EC50 [3]: 1.66 µg/mL
- EC50 [4]: 1.63 µg/mL
- EC50 [5]: 2.05 µg/mL
- EC50 [6]: 1.64 µg/mL
- EC50 [7]: 1.67 µg/mL
- EC50 [8]: 1.79 µg/mL

Reference: patent US20250361296A1 (BIOCYTOGEN PHARMACEUTICALS BEIJING, published 2025)
